# Laboratory results reported in the nanobody polyreactivity screen of Harvey et al. (2022).
# Assay: yeast display, Sf9 membrane polyspecificity reagent, FACS + sequencing; frameworks hold sequencing errors
# In short: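 Galactose induction of a Saccharomyces cerevisiae BJ5465 synthetic nanobody display library ran 36–48 hours. The cells were then stained for 1 hour at 4 °C with 10% biotinylated, detergent-solubilized Sf9 membrane reagent, pulled down on streptavidin microbeads and FACS-sorted into low and high (top ~1%) gates on expression and reagent-binding fluorescence. Labels for polyreactivity follow the gate of origin.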
row,Sequence,polyreactivity (PSR sort gate)
1,QVQLVESGGGLVQAGGSLRSSCAASGSIFQYYALGWYRQAPGNERELVAAISSGGRTNYADSVKGRFTISRDNAKNTVYLQMNSLKPEDTAVYYCAAARYYYQVYRWEYDYWGQGTQVTVSS,high polyreactivity
2,QVQLVESGGGLVQAGGSLRVSCAASGFTFDYYAMGWYRQAPGKEWEFVAAISSRGDDTYYADSVKGRFTISRDNAKNTVYLQMNSLKPEDTAVYYCAKVWRYGRYEYGYWGHGTQVTVSS,high polyreactivity
3,QVQLVESGGGLVQAGGSLRVSCAASGFTFGYYGMGWYRQAPGKERELVAAISWSGGSTYYADSVKGRFTISRDNAKYTVYLQMNSLKPEVTAVYYCNADYAGFYQRRYIEDDYWGQGTQVTVSS,low polyreactivity
4,QVQLVESGGGLVQAGGSLRVSCAASGFTFYQYGMGWYRQAPGKERELVATSTSGGRTNYADSVKGRFTISRDNAKNTVYLQMNSLKPEDTAVYYCNKLPYYPRVGRIGRYYYWGQGTQVTVSS,high polyreactivity
5,QVQLVESGGGLVQAGGSLRVSCAASGINFDYYVMGWYRQAPGKERELVAAISRSGDRTNYADSVKGRFTSSRDHEKYTVFLLMNSLKPEDTAVYYCAARVRIRGGGYDYWGQGTQVTVSS,high polyreactivity
6,QVQLVESGGGLVQAGGSLRVSCAASGNTFGPYAMGWYRQAPGKERELVAAISSGGSTNYADSVKGRFTISRDNAKNTVYLQMNSLKPEDTAVYYCARDAFSGSDFSYASIEYDYWGQGTQVTVSS,low polyreactivity
7,QVQLVESGGGLVQAGGSLRVSCAASGRIFTIYAMGWYRQAPGTEREVVAAISDRGTRTYYADSVKGRFTISRDNAKNTVYVQMNSLKPEDTALYYCATDALYTYGYDYWGQGSQVTVSS,low polyreactivity
8,QVQLVESGGGLVQAGGSLRVSCAASGRIFVDYAMGWYRQAPGKERELVAAISRRGGSTYYADSVKGRFTISRDNAKNTVYLQMNSLKPEDTAVYYCNALVNSGGGYGATEYDYWGQGTQVTVSS,high polyreactivity
9,QVQLVESGGGLVQAGGSLRVSCAASGRILPFYAMGWYRQAPGKERELVATISWTSDSTYYADSVKGRFTISRDNAKNTVSLQMNSLKPEDTAVYYCAREYTYTYASTVIYDHWGQGTQVTVSS,low polyreactivity
10,QVQLVESGGGLVQAGGSLRVSCAASGRSFWTDTMGWYRQAPGKEREFVAAITFGDGSTSYADSVKGRFTISRDNAKNTVYLQMNSLKPEDTAVYYCAKRWRRRFVDVWSLYDYWGQGTQVTVSS,low polyreactivity
11,QVQLVESGGGLVQAGGSLRVSCAASGRTCRYYAMGWYRQEHGTEREWVAVISWSGGTTRYADSVKGRFTISRDNAKNTVYIQMNSLKPEDTAVYYCAARVSVWYNYWGQGTQVTVSS,high polyreactivity
12,QVQLVESGGGLVQAGGSLRVSCAASGRTFARYALAWYRQAPGKERELVAAISRGGTTNYADSVKGRFTISRDNAKNTVYLQMNSLKPEDTAVDYCNRDFHLSHLSSARLDYWGQGTQVTVSS,low polyreactivity
13,QVQLVESGGGLVQAGGSLRVSCAASGRTFGRYAMGWYRQATGKERELVAAISYSGGSTYYADSVKGRFTISRDNAKNNVYLQMNSLKPEDTAVYYCAAYYSGKDGYWGQGTQVTVSS,high polyreactivity
14,QVQLVESGGGLVQAGGSLRVSCAASGRTFWTNAMGWYRQAPGKEREILAAISWRGASTFYADSVKGRFTISRDNAKNTVYLQMNSLKPEDTAVYYCAAQSRTRSFYGKYDSWGQGTQVTVSS,low polyreactivity
15,QVQLVESGGGLVQAGGSLRVSCAASGSIFIRYAMGWYRQAPGKERELVAAIRSSGGSTYADSVKGRFTISRDNAKNTVYLQMISLKPEDTAVYYCAAGRSSKNSYSYPYYYWGQGTQVTVSS,high polyreactivity
16,QVQLVESGGGLVQAGGSLRVSCAASGSIFSYYAMGWYRQAPGKEREFVAAISWSGGSTYYADSVKGRFTISRDNAKNTVYLQMNSLKPEDTAVYYCAAELSLSWLVPDVPYYYWGQGTQVTVSS,low polyreactivity

row,Sequence,polyreactivity (PSR sort gate)
1,QVQLVESGGGLVQAGGSLRVSCAASGSIFYGNAMGWYRQAPGKARELVAAISNVGRTDYADSVKGRFTISRDNAKPTVYLQMNSLKPEDTADYSCAAGVYSGSNRYYAPRSWFGYYYWGQGTQVTVSS,low polyreactivity
2,QVQLVESGGGLVQAGGSLRVSCAASGSIFYSNAMGWYRQAPGKERELVAAITRRGGSTYYADSVKGRFTISRDIATNPVYLQMNSLIPEDTAVYYCAARSKTSNLFNYWGQGTQVTVSS,high polyreactivity
3,QVQLVESGGGLVQAGGSLRVSCAASGSNFPRYAMGWYRQAPGKERELVAAISGRGGSTYYADSVKGRFTISRDNAKNTVYLQMNSLKPEDTAVYYCNAVGHTSIRRALDILDYWGQGTQVTVSS,high polyreactivity
4,QVQLVESGGGLVQAGGSLRVSCAASGSTFLVYARGWYRQAPGKERELVAAISWSGGSTYYADSVKGRFTISRDNAKKTVYLQMNSLKPEDTAVYYCNAEGIYRQPRGYVYRYDYWGQGTQVTVSS,high polyreactivity
5,QVQLVESGGGLVQAGGSLRVSCAASGSTFRKYAMGWYRQAPGKEREFVAAITSSGGSTYYADSVKGRFTISRDNAKNTLYLQMNSLKPEDTAVYYCAARGDSVSTAYNYWGQGTQVTVSS,high polyreactivity
6,QVQLVESGGGLVQAGGSLRVSCAASGSTFSQYAMGLYRQAPGKEREFVAVITLSVVSTSYADSVKGRFTFSRDNAKNTVYLQMNSQKPEDTAVYYCNKDSGVRGPGYGYWGQGTQVTVSS,low polyreactivity
7,QVQLVESGGGLVQAGGSLRVSCAASGSTFSYNAMGWYRQAPGKERELVASINSRGGTTYYADTVKVRFTISRDNAKNTVYLQMKSLKPEDTAVYYCATDVYRLGEYDYWGQGTQVTVSS,low polyreactivity
8,QVQLVESGGGLVQAGGSLRVSCAASGSTFTAYAMGWYRQAPGKERELVAAINWSGGTTYYADSVKGRFTISRDNAKNTVYLQMNSLKPEDTAVYYCAVDGNFFGEVRPYDYWGQGTQVTVSS,low polyreactivity
9,QVQLVESGGGLVQAGGSLRVSCAASGSTFTGYAMGWYRQAPGKERELVAAISRGGSTNYADSVKGRFTISRDNAKNTVYLQMNSLKPEDTAVYYCAAETYYFGYGYWGQGTQVTVSS,high polyreactivity
10,QVQLVESGGGLVQAGGSLRVSCAASGSTFTNYAMGVYRQAPRKERELIARITYNVGRTYYADSVKGRFTISRDNAKNTVYLQMNSLKPEDTAVYYCAAGVGWRYRVRWYYYLGDYWGQVTQVTVSS,high polyreactivity
11,QVQLVESGGGLVQAGGSLRVSCAASGSTFYYNAMGWYRQATGKERELVAAITRSAGSTYYADSVKGRFTISRDNAKNTVYLQMNSLKPEDTAVYYCNARYSFYGSYWTSGKYDYWGQGTQVTVSS,high polyreactivity
12,QVQLVESGGGLVQAGGSLRVSCAASGSTLGRNTMGWYRQAPGKVRELVAAITITDSTNYADSVKGRFTISRDNAKNTVYLQMNSLKPEDTAVYYGAKRRYYSTPRWGSSTYDYWGLGTQVTVSS,low polyreactivity
13,QVQLVESGGGLVQAGGSLRVSCAASGSTLVFNAMGWYRQAPGKEREIVAAISKSGGSRYYADSVKGRFTISRDNAKNTVYLQMNSLKPEDTAVYYCAPDSGGPGYAMDYWGQGTQVTVSS,high polyreactivity
14,QVQLVESGGGLVQAGGSLRVSCAASGYIFTPYAMGWYRQAPGKERELVAAISSSTVRTFYADSVKGRFTISRDNAKNTVYLQMNSLKPEDTAVYYCAARGYWGQGTQVTVSS,high polyreactivity
15,QVQLVESGGGLVQAGGSLRVTCAASGRIFQRYVMGWYRQAPGKERELVAAITWSGGSTYADSVKGRFTISRDNAKNTVYLQMNSLKTEDTAVYYFAARVPYNYWGMYYLYDYWGQGTQVTVSS,high polyreactivity
